The RNAGym collection of RNA variant scans (doi:10.1073/pnas.2313332121)

B1: TPR t1 (parent)
chain: GACCAAUCUGCCCUCAGAGCUCGAGAACAUCUUCGGAUGCAGAGGAGGCAGGCUUCGGUGGCGCGAUAGCGCCAACGUCCUCAACCUCCAAUGCAUCCCACCACAUGAUGAUGCCUGAAGAGCCUUGGUUUUUUG

Variants of: B1
Experiment: polymerase ribozyme fitness, log enrichment relative to wild type (log ratio); higher = more active; in vitro selection for triplet polymerase activity
How it was run: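 Each subunit of a heterodimeric triplet polymerase ribozyme was represented by a PCR-built, transcribed mutant library that underwent triplicate single-round in vitro selection with frozen incubation at −7 °C. Extended constructs were recovered by gel excision, streptavidin-bead capture and RT-PCR, and Illumina sequencing of input and output libraries kept genotypes with ≥10 input reads and ≥1 read per output. Fitness is the logarithm of genotype enrichment relative to wild-type enrichment, from inverse-variance-weighted replicate averages, with a logarithm base of 2.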

Variant	polymerase ribozyme fitness (log ratio)
GACCAAUAUGCCCUCAGAGCUCGUGAACAUCUUCGGAUGCAGAGGAGGCAGGCUUCGGUGUCGCGAUAGCGCCAACGUCCUCAACCUCCAAUGCAUCCCACCACAUGAUGAUGCUUAAAGAGCCUUGGUUUUUUG [C8A A24U G61U C115U G117A]	-7.42
GACCAAUAUGCCCUCAGAGCUCGAGAACGUCUUCGGAUGCAGAGGAGGCAGGCUUCGGUGGCGCGAUAGCGCCAACGUCCUCAACCUCCAAUGCAUCCCACCACAUGAUGAUGCUUGAAGAGCCUGGGUUUUUUG [C8A A29G C115U U126G]	-2.36
GACCAAUAUGCCCUCAGAGCUCGAGAACUUCUUCGGAUGCAGAGGAGGCAGGCUUCGGUGGCGCGAUAUCGCCAACGUCCUCAACCUCCAAUGCAUCCCACCACAUGAUGAUGCCUGAAGAGCCUUGGUUUUUUG [C8A A29U G69U]	-0.0842
GACCAAUAUGCCCUCAGAGCUCGAGAACAUCUUCGGCUGCAGAGGAGGCAGGCUUCGGUGGCGCGAUAGCGCCAACGUCCUCAACCUCCAAUGCAUCCCAGCACAUGAUGAUGCCUGAAGAGCCUUGGUUUUUUG [C8A A37C C101G]	-1.22
GACCAAUAUGCCCUCAGAGCUCGAGAACAUCUUCGGGUGCAGAGGAGGCAGGCUUCGGUGGCGCGAUAGCGCCAACGUCCUCAACCUCCAAUGCAUCCCCCCACAUGAUGAUGCCUGAAGAGCCUUGGUUUUUUG [C8A A37G A100C]	-0.161
GACCAAUAUGCCCUCAGAGCUCGAGAACAUCUUCGGGUGCAGAGGAGGCAGGCUUCGGUGGGGCGAUAGCGGCAACGUCCUCAACCUCCAAUGCAUCCCACCACAUGAUGAGGCCUGAAGAGCCUUAGUUUUUUG [C8A A37G C62G C72G U112G G127A]	-5.98
GACCAAUAUGCCCUCAGAGCUCGAGAACAUCUUCGGUUGCAGAGGAGGCAGGCUUCGGUGGCGCGAUAGCGCCAACGUCCUCAACCUCCAAUGCAUCCCACCAAAUGAUGAUGCCUGAAGAGCCUUGGUUUUUUG [C8A A37U C104A]	-1.64
GACCAAUAUGCCCUCAGAGCUCGAGAACAUCUUCGGAUGCUGAGGAGGGAGGCUUCGGUGACGCGAUAGCGCCAACGUCCCCAACCUCCAAUGCAUCCCUCCACAUGAUGAUGCCUGAAGAGCCUUGGUUUUUUG [C8A A41U C49G G61A U81C A100U]	-8.29
GACCAAUAUGCCCUCAGAGCUCGAGAACAUCUUCGGAUGCUGAGGAGGCAGGCUUCGGUGGCGCGAUAGCGCCAACGUCCUCAACCUCCAAUGCAUCCCACCACAUGAUGACGCCUGAAGAGCCUUGGUUUUUUG [C8A A41U U112C]	0.774
GACCAAUAUGCCCUCAGAGCUCGAGAACAUCUUCGGAUGCAGCAGAGGCAGGAUUCGGUGGCGCGAUAGCGCCAACGUCCUCAACUUCCAAUUCAUCCCACCACAUGAUGAUGCCUGAAGAGCCUUGGUUUUUUG [C8A A43C G44A C53A C86U G93U]	-2.53
GACCAAUAUGCCCUCAGAGCUCGAGAACAUCUUCGGAUGCAGCGGAGGCAGGCUUCAGUGGCGCGAUAGCGGCAACGUCCUCAACCUCCAAUGCACCCCACCGCAUGGGGAUGCCUGAAGAGCCUUGGUUUUUUG [C8A A43C G57A C72G U96C A103G A108G U109G]	-5.5
GACCAAUAUGCCCUCAGAGCUCGAGAACAUCUUCGGAUGCAGAGGGGGCAGGCUUCGGUGGCGCGAUAGCGCCAACGUCCUCAACCUCCAAUGCAUCCCAUCACAUGAUGAUGCCUGAAGAGCCUUGGUUUUUUG [C8A A46G C101U]	-0.289
GACCAAUAUGCCCUCAGAGCUCGAGAACAUCUUCGGAUGCAGAGGUGGCAGGCUUCGGUGGCGCGAUAGCGCCUACGUCCUCAACCUCCAAUGCAUCCCUCUACAUGAUGAUGCAUGAAGAGCCUUGGUUUUUUG [C8A A46U A74U A100U C102U C115A]	-2.37
GACCAAUAUGCCCUCAGAGCUCGAGAACAUCUUCGGAUGCAGAGGAGGCUGGCUUCGGCGGCCCGAUAGCGCCAACGUCCUCAACCUCCAAUGCAUCCCACCACAUGAUGAUGCCUGAAGAGCCUUGGUUUUUUG [C8A A50U U59C G63C]	-4.31
GACCAAUAUGCCCUCAGAGCUCGAGAACAUCUUCGGAUGCAGAGGAGGCAGGCUUCGGUGGCGCGUUAGCGCCAACGUCCUCAACCUCCAAUGCAUCCCACCACAUGAUGAUGCCUGAAGAGCGUUGGUUUUUUG [C8A A66U C124G]	0.659
GACCAAUAUGCCCUCAGAGCUCGAGAACAUCUUCGGAUGCAGAGGAGGCAGGCUUCGGUGGCGCGAUAGCGCCAUCGUCCUCAAACUCCCAUACAUCCCACCACAUGAUGAUGCCUGAAGAGCCUUGGUUUUUUG [C8A A75U C85A A90C G93A]	-3.24
GACCAAUAUGUCCUCACAGCUCGAGAACAUCUUCGGAUGCAGAGGAGGCAGGCUUCGGUGGCGCGAUAGCGCCAACGUCCUCAACCUCCAAUGCAUCCCACCACAUGAUGAUGCCUGAAGAGCCUUGGUUUUUUG [C8A C11U G17C]	-2.13
GACCAAUAUGCGCUCAGAGCUCGAGAACAUCUUCGGAUGCAGAGGAGGCAGGCUUCGGUGCCGCGAUAGCGCCAACGUCCUCAACCUCCAAUGCAUCCCACCACAUGAUGAUGCCUGAAGAGACUUGGUUUUUUG [C8A C12G G61C C123A]	-0.379
GACCAAUAUGCUCUCAGAGCUCGAGAACAUCUUCGGAUGAAGAGGAGGCAGGCUUCGGUGGCGCGAUAGCGCCAACGUCCUCAACCUCCAAUGCAUCCCACCACAUGAUGAUGCCUGAAGAGCCUUGGUUUUUUG [C8A C12U C40A]	-0.186
GACCAAUAUGCCUUCAGAGCUCGAGAACAUCUUCGCAUGCAGAGGAGGCAGGCUUCGGUGGCGCGAUAGCGCCAACGUCCUCAACCUCCAAUGCAUCCCACCACAUGAUGAUGCCUGAAGAGCCUUGGUUUUUUG [C8A C13U G36C]	-0.24
GACCAAUAUGCCUUCAGAGCUCGAGAACAUCUUCGGAAGCAGAGGAGGCAGGCUUCGGUGGCGCGAUAGCGCCAACGUCCUCAACCUCCAAUGCAUACCACCACAUGAUGAUGCCUGAAGAGCCUUGGUUUUUUG [C8A C13U U38A C97A]	-6.04

Variant	polymerase ribozyme fitness (log ratio)
GACCAAUAUGCCCUCAGAGAUCGAGAACAUCUUCGGAUGCAGAGGAGGCAGGCUUCGGUGGCGCGAUAGCGCCAACGUACUCAACCUCCAAUGCAUCCCACCACAUGAUGAUGCCUGAAGAGCCUUGGUUUUUUG [C8A C20A C79A]	-3.7
GACCAAUAUGCCCUCAGAGAUCGAGAACAUCUUCGGAUGCAGAGGAGGCAGGCUUCGGUGGCGCGAUAGCGCCAACGUCCUCAACCUCCAAUGCAUCCCACCACAUGAUGAUGCCUGAAGAGCCUAGGUUUUUUG [C8A C20A U126A]	-3.84
GACCAAUAUGCCCUCAGAGCUGGAGAACAUUUUCGCAUGCAGAGGAGGCAGGCUUCGGUGCCGCGAUAGCGCCAACGUCCUCAACCUCCAAUGCAUCCCACCACAUGAUGAUGCCUGAAGAGCCUUGGUUUUUUG [C8A C22G C31U G36C G61C]	-6.63
GACCAAUAUGCCCUCAGAGCUGGAGAACAUCUUCGGAUGCAGAGGAGGCAGGCUUCGGUGGCGCGAUAGCGCCAACGUCCUCAACCUCCAAUGCAUCCCACCACAUGAUGAUUGCUGAAGAGCCUUGGUUUUUUG [C8A C22G G113U C114G]	-3.52
GACCAAUAUGCCCUCAGAGCUCGAGAAAAUCUUCGGAUGCAGAGGAGGCAGGCUUUGGUGGCGCGAUAGCGCCAACGUCCUUAACCUCCAAUGCAUCCCACCACAAGAUGAUGCAUGAAGAGCCUUGGUUUUUUG [C8A C28A C56U C82U U106A C115A]	-2.02
GACCAAUAUGCCCUCAGAGCUCGAGAAGAUCUUCGGAUGCAGAGGAGGCAGGCUUCGGUGACGCGAUAGCGCCAACGUCCUCAACCUCCAAUGCAUCCCACCACAUGAUGAUGCCUGAAGAGCCUUGGUUUUUUG [C8A C28G G61A]	-2.22
GACCAAUAUGCCCUCAGAGCUCGAGAACAUCUUAGGAUGCAGAGGAGGCAGGCUUCGGUGGCGCGAUAGCGCCAACGUCCUCAACCUCCAAUGCAUCGCACCACAUGAUGAUGCCUGAAGAGCCUGGGUUUUUUG [C8A C34A C98G U126G]	-4.07
GACCAAUAUGCCCUCAGAGCUCGAGAACAUCUUGGGAUGCAGAGGAGGCAGGCUUCGGUGGCGCGAUAGCGCCAACGUCCUCAACCUCCAAUGCAUCCCACCACAUGAUCAUGCCUGAAGAGCCUUGGGUUUUUG [C8A C34G G110C U129G]	-8.1
GACCAAUAUGCCCUCAGAGCUCGAGAACAUCUUCGGAUGGAGAGGAGGCAGGCUUCGGUGGCGCGAUAGCGCCAACGUCCUCAACCUCCAAUGCAUCCCACCACAUGAUGAUGCCUGAAGAGCCUUGGUUUUUUG [C8A C40G]	0.0349
GACCAAUAUGCCCUCAGAGCUCGAGAACAUCUUCGGAUGUAGAGGAGGCAGGCUUCGGUGGCGCGAUAGCGCCAACGUCCUCAACCUCCAAUGCAUCCCACCCCAUGAUGAUGCCUGAAGAGCCUUGGUUUUUUG [C8A C40U A103C]	-3.75
GACCAAUAUGCCCUCAGAGCUCGAGAACAUCUUCGGAUGCAGAGGAGGUAGGCUUCGGUGGCGCGAUAGCGCCAACGUCCUCAACCUCCAAUGCAUCCCACCACAUGAUGAUGCCUGAAGAGCCUUGGUUUUUUG [C8A C49U]	0.0763
GACCAAUAUGCCCUCAGAGCUCGAGAACAUCUUCGGAUGCAGAGGAGGCAGGUUUAGGUGGCGCGAUAGCGCCAGCGUCCUCAACCUCCAAUGCAUCCCACCACAUGAUGAUGCCUGAAGAGCCUUGGUUUUUUG [C8A C53U C56A A75G]	0.188
GACCAAUAUGCCCUCAGAGCUCGAGAACAUCUUCGGAUGCAGAGGAGGCAGGCUUGGGUGGCGCGAUAGCGCCAACGUCCUCAACCUCCAAUGCAUCCCACCACAUGAUGAUGCCUGAAGAGCCUUGGUUUUUUG [C8A C56G]	0.28
GACCAAUAUGCCCUCAGAGCUCGAGAACAUCUUCGGAUGCAGAGGAGGCAGGCUUCGGUGGAGCGAUAGCGCCAACGUCCUCAACCUCCAAUGCAUCCCACCACAUGAUGAUGCCUGAAGAGCCUUGGUGUUUUG [C8A C62A U130G]	-0.621
GACCAAUAUGCCCUCAGAGCUCGAGAACAUCUUCGGAUGCAGAGGAGGCAGGCUUCGGUGGUGCGAUAGCGCCCACGUCCUCAACCUCAAAUGCAUCCCACCAAAUGAUGACGCCUGAAGAGCCUUGGUUUUUUG [C8A C62U A74C C89A C104A U112C]	-3.01
GACCAAUAUGCCCUCAGAGCUCGAGAACAUCUUCGGAUGCAGAGGAGGCAGGCUUCGGUGGCGAGAUAGCGCCAACGUCCUCAACCUCCAAUGCAUCCCACCACAUGAUGACGCCUGAAGAGCCAUGGUUUUUUG [C8A C64A U112C U125A]	-5.5
GACCAAUAUGCCCUCAGAGCUCGAGAACAUCUUCGGAUGCAGAGGAGGCAGGCUUCGGUGGCGGGAUAGCGCCAACGUCCUCAACCUCCAAUGCAUCCCACCACAUGAUGGUGCCUGAAGCGCCUUGGAUUUUUG [C8A C64G A111G A121C U129A]	-6.98
GACCAAUAUGCCCUCAGAGCUCGAGAACAUCUUCGGAUGCAGAGGAGGCAGGCUUCGGUGGCGUGAUAGCGCCAACGUCCUCAACCUCCAAUGCAUCCCACCACAUGAUGAUGCCUGAAGGGCCUUGGUUUUUUG [C8A C64U A121G]	1.81
GACCAAUAUGCCCUCAGAGCUCGAGAACAUCUUCGGAUGCAGAGGAGGCAGGCUUCGGUGGCGUGAUAGCGCCAACGACCUCAACCUCCAAUGGAUCCCUCAACAUGAUGAAGCCUGAAGAGCCUUGAAUUUUUC [C8A C64U U78A C94G A100U C102A U112A G128A U129A G135C]	-4.75
GACCAAUAUGCCCUCAGAGCUCGAGAACAUCUUCGGAUGCAGAGGAGGCAGGCUUCGGUGGCGCGAUAGGGCCAACGUCCUCAACCUCCAAUGCAUCCCACCACAUGAUGAUGCCUGAAGAGCCUUGGUUUUUUG [C8A C70G]	-1.76
GACCAAUAUGCCCUCAGAGCUCGAGAACAUCUUCGGAUGCAGAGGAGGCAGGCUUCGGUGGCGCGAUAGCGACAACGUCCGCAACCUCCAAUGCAUCCCACCACAUGAUGAUGCCUGAAUAGCCUUGGUUUUUUG [C8A C72A U81G G120U]	-0.73
